Laboratory results from patent publication US20220273679A1, “METHODS AND COMPOSITIONS FOR TREATING AND PREVENTING DAMAGE TO SKIN” (New York Society for the Relief of the Ruptured and …, priority 2019, published 2022).

How the values were obtained:
LC-Ad17 mice = assay: UVR-induced keratinocyte apoptosis and monocyte numbers in ears of LC-Ad17 mice; type: in vivo, mouse; conditions: applied on ears prior to UVR, 24 hours
Protocol: FIGS. 5A-5H. LC-derived ADAM17 limits UVR-induced keratinocyte apoptosis and skin injury. (5A-5D) Graphs showing WT and LC-Ad17 mice were treated with UVR and analyzed at indicated time points. (5A) Graph showing activated caspase-3+ keratinocytes (n=3-5 mice). […] (5C) Graph showing epidermal thickness (n=3-4 mice). (5D) Graph showing quantification of epidermal permeability (n=3-5 mice). (5E,5F) Vehicle or HB-EGF was applied on the ears prior to UVR exposure (n=3-4 mice). (5E) Graph showing activated caspase-3+ keratinocytes. (5F) Graphs showing absolute (left) and normalized (right) monocyte numbers. (5G,5H) Effect of LC Adam17 deletion or ADAM17 blockade on keratinocyte survival in vitro. Murine keratinocytes with LCs from indicated mice (5G) and human keratinocytes with control-IgG or anti-ADAM17-treated LCs (5H) were exposed to UVR and examined at 24 hours (n=3 mice or 4 human donors). Data are from 3 (5E-5G), 4 (5A), 2 (5H), 5 (5B), and 1 (5C,5D) independent experiments. Bars represent means (5A,5B,5D-H) or medians (5C).

MRL-Faslpr mice = assay: Multi-day UVR lesion development in MRL-Faslpr SLE model mice with topical treatment; type: in vivo, mouse
Protocol: FIGS. 8A-8C. Topical EGFR ligand reduces photosensitivity. (8A) Experimental scheme for (B-C) (n=4 mice). MRL-Faslpr mice ears and back skin were topically treated with HB-EGF for 2 days before and on the first day of UVR exposure and examined 24 hours after the final exposure. Ears were treated with Control plus vehicle, UVR plus vehicle, UVR+ HB-EGF and MRL-MpJ UVR+ vehicle. The MRL-MpJ ear represents a non-SLE control. (8C) Graph of ear histopathology scores. (8C) Graph of absolute monocyte numbers. Data are from 3 independent experiments. Bars represent means.
FIGS. 18A-18B. EGFR ligand application reduces the severity of UVR-induced skin lesions and lymph node B cell responses in SLE model mice. Mice were treated with HB-EGF (n=4 mice). Lesional areas are seen in magnified images of back lesions (not shown). Neutrophil-dominant infiltrate and ulceration are seen in H&E images of ear skin (not shown). (18A, 18B) Germinal center B cell (18A) and plasma cell (18B) numbers in skin draining lymph nodes (auricular and inguinal) normalized to mice treated with UVR+ vehicle. Each symbol represents either inguinal or auricular lymph nodes from multiple mice. Data from 2 independent experiments. Bars represent means.
The remaining hair on the back skin of the mice was removed using Nair and photographs were taken. The total back area and lesional area (skin affected by erythema, scaliness, crustiness, or epidermal erosion) was measured by a blinded observer using ImageJ software and skin lesions were quantified as percent of back area.
Skin histopathology scoring: A blinded expert dermatopathologist scored H&E stained sections based on dermal inflammation (0-3).

Langerin-DTA mice = assay: UVR-induced keratinocyte apoptosis and monocyte accumulation in ears of Langerin-DTA mice; conditions: 2 ug per ear 15 minutes prior to UVR, 24 hours after UVR
Protocol: (3C,3D) Mouse ears were treated with vehicle or HB-EGF prior to UVR and examined 24 hours after UVR (n=3-4 mice). (3C) Graph of activated caspase-3+ keratinocytes. (3D) Graph of absolute (left) and normalized (right) monocyte numbers. […] Bars represent means. Error bars depict standard deviations.
For indicated 24 hour experiments, HB-EGF (2 ug; R&D Systems) dissolved in dimethyl sulfoxide (DMSO) was applied to each ear 15 minutes prior to UVR exposure.
For immunofluorescence staining of murine skin, frozen unfixed mouse skin was sectioned, fixed with cold acetone for 10 minutes, and stained as indicated (15). Epidermal activated caspase-3+ cells per high powered field (40× magnification) were quantified by a blinded observer using ImageJ software (NIH) and classified as activated caspase-3+ keratinocytes (Langerin− and CD3−), LCs (Langerin+), or T cells (CD3+).

ADAM17 = conditions: mouse embryonic fibroblasts; cited from earlier work
[1] = MRL-Faslpr mice, topical, multi-day UVR
[2] = MRL/lpr lupus model, topical application

| Molecule | UVR-induced skin inflammation (monocyte numbers) (LC-Ad17 mice) | increased UVR-induced keratinocyte apoptosis (LC-Ad17 mice) | severity of UVR-induced skin lesions (MRL-Faslpr mice; MRL-Faslpr mice, topical on ears and back for three consecutive days, 6 days UVR) | germinal center B cells in skin-draining lymph nodes (MRL-Faslpr mice; [1]) | plasma cells in skin-draining lymph nodes (MRL-Faslpr mice; [1]) | monocyte accumulation (MRL-Faslpr mice; MRL-Faslpr mice, topical, multi-day UVR, 24 hours after final exposure) | photosensitivity (MRL-Faslpr mice; [2]) | skin-draining lymph node (B cell) responses (MRL-Faslpr mice; [2]) | skin-draining lymph node (B cell) responses (MRL-Faslpr mice; MRL/lpr lupus model, topical application, listed as Hb-EGF) | UVR-induced apoptotic keratinocyte accumulation (Langerin-DTA mice) | UVR-induced monocyte accumulation (Langerin-DTA mice) | ADAM17 activation (ADAM17) |
| --- | --- | --- | --- | --- | --- | --- | --- | --- | --- | --- | --- | --- |
| heparin-binding EGF-like growth factor (protein) DLQEADLDLLRVTLSSKPQALATPNKEEHGKRKKKGKGLGKKRDPCLRKYKDFCIHGECKYVKELRAPSCICHPGYHGERCHGLSL | dampened | dampened | reduced the severity | reduced | reduced | reduced | reduces | reduction | reduces | reduced | reduced | – |
| EGF: EGFR-ligand cited as stimulating ADAM17 (protein, UniProt P01133 23-1207, looked up, Pro-epidermal growth factor, EGFR-ligand cited as stimulating ADAM17) Pro-epidermal growth factor: PQHWSCPEGTLAGNGNSTCVGPAPFLIFSHGNSIFRIDTEGTNYEQLVVDAGVSVIMDFHYNEKRIYWVDLERQLLQRVFLNGSRQERVCNIEKNVSGMAINWINEEVIWSNQQEGIITVTDMKGNNSHILLSALKYPANVAVDPVERFIFWSSEVAGSLYRADLDGVGVKALLETSEKITAVSLDVLDKRLFWIQYNREGSNSLICSCDYDGGSVHISKHPTQHNLFAMSLFGDRIFYSTWKMKTIWIANKHTGKDMVRINLHSSFVPLGELKVVHPLAQPKAEDDTWEPEQKLCKLRKGNCSSTVCGQDLQSHLCMCAEGYALSRDRKYCEDVNECAFWNHGCTLGCKNTPGSYYCTCPVGFVLLPDGKRCHQLVSCPRNVSECSHDCVLTSEGPLCFCPEGSVLERDGKTCSGCSSPDNGGCSQLCVPLSPVSWECDCFPGYDLQLDEKSCAASGPQPFLLFANSQDIRHMHFDGTDYGTLLSQQMGMVYALDHDPVENKIYFAHTALKWIERANMDGSQRERLIEEGVDVPEGLAVDWIGRRFYWTDRGKSLIGRSDLNGKRSKIITKENISQPRGIAVHPMAKRLFWTDTGINPRIESSSLQGLGRLVIASSDLIWPSGITIDFLTDKLYWCDAKQSVIEMANLDGSKRRRLTQNDVGHPFAVAVFEDYVWFSDWAMPSVMRVNKRTGKDRVRLQGSMLKPSSLVVVHPLAKPGADPCLYQNGGCEHICKKRLGTAWCSCREGFMKASDGKTCLALDGHQLLAGGEVDLKNQVTPLDILSKTRVSEDNITESQHMLVAEIMVSDQDDCAPVGCSMYARCISEGEDATCQCLKGFAGDGKLCSDIDECEMGVPVCPPASSKCINTEGGYVCRCSEGYQGDGIHCLDIDECQLGEHSCGENASCTNTEGGYTCMCAGRLSEPGLICPDSTPPPHLREDDHHYSVRNSDSECPLSHDGYCLHDGVCMYIEALDKYACNCVVGYIGERCQYRDLKWWELRHAGHGQQQKVIVVAVCVVVLVMLLLLSLWGAHYYRTQKLLSKNPKNPYEESSRDVRSRRPADTEDGMSSCPQPWFVVIKEHQDLKNGGQPVAGEDGQAADGSMQPTSWRQEPQLCGMGTEQGCWIPVSSDKGSCPQVMERSFHMPSYGTQTLEGGVEKPHSLLSANPLWQQRALDPPHQMELTQ | – | – | – | – | – | – | – | – | – | – | – | activated |
